Blank lines part the entries; values can stand above or below the binder they belong to.
Columns and labels:
[1] = target: T1, ChemR23 (Mus musculus, UniProt P97468); assay: radioligand saturation binding (CHO-K1 cells)
T1 chain: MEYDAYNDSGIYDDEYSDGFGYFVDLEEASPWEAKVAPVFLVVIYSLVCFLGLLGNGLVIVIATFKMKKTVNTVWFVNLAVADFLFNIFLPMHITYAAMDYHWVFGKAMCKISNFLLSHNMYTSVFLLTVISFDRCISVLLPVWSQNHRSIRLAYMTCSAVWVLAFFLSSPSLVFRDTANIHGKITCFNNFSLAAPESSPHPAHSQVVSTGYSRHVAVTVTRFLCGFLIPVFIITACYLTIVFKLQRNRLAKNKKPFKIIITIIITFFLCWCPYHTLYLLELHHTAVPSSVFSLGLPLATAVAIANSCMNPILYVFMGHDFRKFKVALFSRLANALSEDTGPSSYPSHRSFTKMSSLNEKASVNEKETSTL

[2] = target: T1, ChemR23; assay: radioligand saturation binding (125I-chemerin, peritoneal macrophages)
[3] = target: T2, ChemR23 (Homo sapiens, UniProt Q99788); assay: radioligand
T2 chain: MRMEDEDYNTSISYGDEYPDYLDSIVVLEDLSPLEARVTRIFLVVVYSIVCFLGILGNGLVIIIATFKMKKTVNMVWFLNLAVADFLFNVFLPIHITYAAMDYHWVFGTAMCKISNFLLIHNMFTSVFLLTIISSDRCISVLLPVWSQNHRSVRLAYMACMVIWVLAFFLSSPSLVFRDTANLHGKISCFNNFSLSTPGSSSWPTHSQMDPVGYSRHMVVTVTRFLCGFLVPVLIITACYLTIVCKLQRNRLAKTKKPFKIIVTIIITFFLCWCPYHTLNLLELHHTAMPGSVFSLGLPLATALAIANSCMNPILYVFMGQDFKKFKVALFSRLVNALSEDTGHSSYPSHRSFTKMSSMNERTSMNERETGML

Kd [1]: 1.1 nM
Kd [2]: ~1.2 nM
B1: chemerin (protein)
chain: ELTEAQRRGLQVALEEFHKHPPVQWAFQETSVESAVDTPFPAGIFVRLEFKLQQTSCRKRDWKKPECKVRPNGRKRKCLACIKLGSEDKVLGRLVHCPIETQVLREAEEHQETQCLRVQRAGEDPHSFYFPGQFAFS
modifications: 125I-labelled chemerin

Kd [3]: 0.9 nM
B2: chemerin (protein)
chain: B1 chain

— article PMC3386906 (2012)
